Sequences and labels used below:
B1: 1H8 (VHH)
VHH: EVQLVQSGGGLVQPGGSLRLSCAASGFTFSSYYMSWVRQAPGKGLEWVSTISTNTGGGSTYYAYADSVKGRFTISRDNAKNTLYLEMNSLKPEDTAQYYCVRTRWEGVYDYWGLGTQV
notes: also called 41BB-targeting single domain antibody 1H8
B2: 4H04 (VHH)
VHH: QVQLQESGGGLVQAGDSLRLSCAASGWAFDNYGMAWFRQAPGKEREFIGRLAWNGGSTDYADSVKGRFTISRDNPKNTLYLQMNNLKPEDTAVYYCARQRSYSGYGIRTPQTYDYWGQGTQVT
notes: also called 4H4
B3: 4F5 (VHH)
VHH: B2 VHH with Q5V, E6Q, A14P, D16G, N85S, G104R, T109A
notes: also called 4F05
B4: 4E01 (VHH)
VHH: B2 VHH with E6Q, D30G, Q39R, A61V, E89D, G104R, G106D
notes: also called 4E1
B5: 1H4 (VHH)
VHH: QVQLVQSGGGLVQPGGSLRLSCVVSGFTFRSYAMSWVRQAPGKGLEWVSTINSGESSTKYADSVKGRFTISRDDAKNTLYLQMSDLKPEDTAVYFCAKHRGWSTVDDINYWGKGTQV
notes: also called 41BB-targeting single domain antibody 1H4
B6: 1G3 (VHH)
VHH: QVQLVQSGGGLVQPGGSLRLSCAASGFTFSSYAMSWVRQAPGKGLEWVSAIPAGDGSTKYADSVKGRFTISRDNAKNTVYLQMDSLKPEDTAVYFCAKSRGWSTVDDMDYWGKGTQV
notes: also called 41BB-targeting single domain antibody 1G3
B7: 1H1 (VHH)
VHH: QVQLVQSGGGLVQPGGSLRLSCAASGFTFDDHAMSWVRQAPGKGLEWVSAISWNGHYTYYAESMKGRFAISRDNAKNTLYLQMNSLKSEDTAVYYCVKGWRGSYTRDRPFASWGQGTQV
notes: also called 41BB-targeting single domain antibody 1H1
B8: RH3 (VHH)
VHH: QVQLQESGGGLVQPGGSLRLSCAVSGFSFSINAMGWYRQAPGKRREFLAAIDSGRNTVYAVSVKGRFTISRDNAKNTVYLQMNSLKPEDTAIYYCGLLKGNRVVSPSVAYWGQGTQVT
notes: also called RH03
B9: D1 (VHH)
VHH: EVQPVQSGGGLVQAGESLRLSCAASATIFSNNAMGWYRQAPGKQRELVATITTGGFTNYRDSVKGRFDISRDNAKNTVYLQMNNLKPEDTAVYYCNVVLRYSRDYSYTTVKEYWGQGTQV
notes: also called 41BB-targeting single domain antibody D1
B10: hzRH3v5-1 (VHH)
VHH: EVQLLESGGGEVQPGGSLRLSCAASGFSFSINAMGWYRQAPGKRREFVAAIESGRNTVYAESVKGRFTISRDNAKNTVYLQMSSLRAEDTAVYYCGLLKGNRVVSPSVAYWGQGTLVTVKP
B11: hzRH3v9 (VHH)
VHH: B10 VHH with R44G

Residue numbers refer to the chain shown, from its start.

T2 sequence (Q07011 24-255): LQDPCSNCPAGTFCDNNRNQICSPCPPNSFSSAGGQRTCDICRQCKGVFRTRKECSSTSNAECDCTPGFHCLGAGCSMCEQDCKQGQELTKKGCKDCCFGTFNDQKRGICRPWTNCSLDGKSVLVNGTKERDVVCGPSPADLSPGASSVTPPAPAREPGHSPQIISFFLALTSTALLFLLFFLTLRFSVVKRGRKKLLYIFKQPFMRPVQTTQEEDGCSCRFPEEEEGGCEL

The first experiment addresses T1, recombinant human 41BB-mFc fusion protein (human, UniProt Q07011 24-186).
T1 construct: A fusion protein containing 41BB operably linked to a mouse Fc region
Kind of experiment: ELISA, recombinant 41BB-mFc immobilized on Medisorp plate. The method, then:
Binding was assessed by ELISA wherein recombinant 41BB-mFc protein was immobilized on a Medisorp 96 well plate.
(§1) The 41BB-targeting single domain antibodies (sdAbs) referred to herein as 1G3 (SEQ ID NO: 432), 1H4 (SEQ ID NO: 436), 1H1 (SEQ ID NO: 440), 4H4 (SEQ ID NO: 16), 1H8 (SEQ ID NO: 444), 4F5 (SEQ ID NO: 23), and 4E1 (SEQ ID NO: 20) bind recombinant human 41BB (FIG. 2A), cynomolgus 41BB (FIG. 2B). The 41BB-targeting single domain antibodies (sdAbs) referred to herein as 4F5 (SEQ ID NO: 23), 4H04 (SEQ ID NO: 16), 4E01 (SEQ ID NO: 20), RH03 (SEQ ID NO: 25), and D1 (SEQ ID NO: 29) bind human 41BB expressed on the cell surface of CHO cells (FIG. 3). The 41BB-targeting sdAbs referred to herein as 4H04, RH03, and […]. For FIG. 2A, FIG. 2B, and FIG. 4, binding was assessed by ELISA wherein recombinant 41BB-mFc fusion protein (a fusion protein containing 41BB operably linked to a mouse Fc region) was immobilized on a Medisorp 96 well plate. For FIG. 3, binding was assessed by flow cytometry using 41BB expressing CHO cells, and the data is presented as median fluorescence intensity.
As for B1, the binding result was “binds”.
Same read-out and setting: then B2, with “binds”; and B3, with “binds”.
The same measure, in the same setting: then B4, with “binds”; and B5, with “binds”; and B6, with “binds”.
Same read-out and setting: then B7, with “binds”.

A further experiment addresses T2, human 41BB expressed on the cell surface (human, UniProt Q07011 24-255).
T2 construct: whole, on cells; also called human 41BB on CHO cells; human 41BB on 293freestyle cells
Kind of experiment: flow cytometry on 41BB expressing CHO cells.
From the text: as §1
For the molecule B2, the binding result is recorded as “binds”.
Still for that read-out and setting: then B3, with “binds”.
Same read-out and setting: then B4, with “binds”; and B8, with “binds”; and B9, with “binds”.

Another experiment concerns the target T2, human 41BB expressed on the cell surface. Kind of experiment: flow cytometry on 41BB expressing 293freestyle cells. The method, then: The PDL1-41BB targeting fusion proteins of the disclosure include a humanized anti-41BB sequence. In the studies presented herein, the PDL1-41BB targeting fusion proteins of the disclosure include a humanized anti-41BB sequence such as hzRH3v5-1 (SEQ ID NO: 30) and/or hzRH3v9 (SEQ ID NO: 82) bind both human and cynomolgus 41BB (FIGS. 9A, 9B), including human 41BB and cynomolgus 41BB expressed on the surface of CHO cells (FIGS. 9C, 9D). Binding was assessed by flow cytometry on 41BB expressing 293freestyle cells.
As to B10, the binding result is listed as “binds”.
On the same count and under the same terms, then B11, with “binds”.

Values taken from patent US20170198050A1 (INHIBRX, published 2017).
